This assay deals with HB-EGF receptor for diptheria toxin/CRM197 (heparin-binding epidermal growth factor-like precursor) on OV90 ovarian cancer cells (UniProt Q99075). The assay is described as follows: cell-based or functional assay.
Chain of UniProt Q99075 (Q99075 63-148 limits assumed): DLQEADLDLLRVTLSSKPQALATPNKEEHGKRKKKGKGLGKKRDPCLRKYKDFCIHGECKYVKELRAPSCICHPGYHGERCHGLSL

Take “CRM197-Alexa488 (from UniProt P00587 26-560)”: the labelling of OV90 tumor cells with CRM197-Alexa488 after 24 hours (flow cytometry, 10 µg/mL, without trypan blue) was found to be 98.2%; the percentage of CRM197-Alexa488 uptake by OV90 tumor cells after 4 hours (flow cytometry, 10 µg/mL, without trypan blue) was 82%; the percentage of OV90 cells with intracellular CRM197-Alexa488 after 4 hours (flow cytometry, with trypan blue quenching) was 72.7%; the percentage of OV90 cells with intracellular CRM197-Alexa488 after 24 hours (flow cytometry, with trypan blue quenching) was determined as 97.6%.

(Values after patent US20220023406A1.)
